For assay [1], the target named is Boc-QLR-AMC.
Assay [2] deals with Ac-Agp-hArg-Leu-Arg-ACC.
The target of assay [3] is NH2-Leu-DTrp-Nle-Arg-ACC.
The target of assay [4] is Ac-His(3Bom)-Agp-hLeu-Arg-ACC.
Assay [5] concerns the target Ac-Ala-Arg-Leu-Arg-ACC.
Assay [6] has as its target Ac-Ala-Arg-Leu-P1-ACC, P1 = L-Trp (W).
Assay [7] addresses Ac-Ala-Arg-Leu-P1-ACC, P1 = L-Met (M).
The target of assay [8] is Ac-Ala-Arg-Leu-P1-ACC, P1 = L-Pro (P).
Assay [9] concerns the target Ac-Ala-Arg-Leu-P1-ACC, P1 = L-Glu (E).
Assay [10] has as its target Ac-Ala-Arg-Leu-P1-ACC, P1 = Gly (G).
Assay [11] deals with Ac-Ala-Arg-Leu-P1-ACC, P1 = L-Asp (D).
Assay [12] deals with Ac-Ala-Arg-Leu-P1-ACC, P1 = L-Lys (K).
Assay [13] addresses Ac-Ala-Arg-Leu-P1-ACC, P1 = L-Leu (L).
In assay [14] the target is Ac-Ala-Arg-Leu-P1-ACC, P1 = L-Phe (F).
For assay [15], the target named is Ac-Ala-Arg-Leu-P1-ACC, P1 = L-Ile (I).
Assay [16] concerns the target Ac-Ala-Arg-Leu-P1-ACC, P1 = L-Gln (Q).
Assay [17] deals with Ac-Ala-Arg-Leu-P1-ACC, P1 = L-Tyr (Y).
Assay [18] deals with Ac-Ala-Arg-Leu-Arg-ACC. This is another data set of the same source.
The target of assay [19] is Ac-Ala-Arg-Leu-P1-ACC, P1 = L-Asn (N).
Assay [20] concerns the target Ac-Ala-Arg-Leu-P1-ACC, P1 = L-Thr (T).
Assay [21] deals with Ac-Ala-Arg-Leu-P1-ACC, P1 = L-Ser (S).
Assay [22] concerns the target Ac-Ala-Arg-Leu-P1-ACC, P1 = L-Val (V).
For assay [23], the target named is Ac-Ala-Arg-Leu-P1-ACC, P1 = L-Ala (A).
Assay [24] addresses Ac-Ala-Arg-Leu-P1-ACC, P1 = L-His (H).
Assay [25] deals with Hepatocyte Growth Factor Activator (HGFA) serine protease domain, N-terminal His-tag, recombinant (Homo sapiens (Human)) (UniProt Q04756). Put plainly: fluorogenic inhibition assay.
The target in assay [26] is T1, Recombinant human hepsin (4776-SE-010, R&D Systems), activated (human, UniProt P05981). Description: fluorogenic inhibition assay.
The target of assay [27] is T2, matriptase (Charles Craik, UCSF), recombinant (Homo sapiens (Human), UniProt Q9Y5Y6).
T2 sequence: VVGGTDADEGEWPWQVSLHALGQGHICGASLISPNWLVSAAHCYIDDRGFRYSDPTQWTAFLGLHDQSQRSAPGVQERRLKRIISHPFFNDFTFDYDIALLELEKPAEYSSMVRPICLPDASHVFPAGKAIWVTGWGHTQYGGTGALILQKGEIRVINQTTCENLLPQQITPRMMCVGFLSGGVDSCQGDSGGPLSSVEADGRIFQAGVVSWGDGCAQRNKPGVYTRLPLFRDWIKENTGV
Description: fluorogenic inhibition assay.

In assay [28] the target is Hepatocyte Growth Factor Activator (HGFA) serine protease domain, N-terminal His-tag, recombinant (Homo sapiens (Human)) (UniProt Q04756). Description: fluorogenic inhibition assay. This is another data set of the same source.
Assay [29] addresses T1, Recombinant human hepsin (4776-SE-010, …). Put plainly: fluorogenic inhibition assay. This is another data set of the same source.
For assay [30], the target named is T2, matriptase (Charles Craik, UCSF), …. Put plainly: fluorogenic inhibition assay. The source holds these as a separate data set.
For assay [31], the target named is recombinant thrombin. Put plainly: selectivity inhibition assay.
Assay [32] has as its target Trypsin. Description: selectivity inhibition assay.
Assay [33] concerns the target Factor Xa. Description: selectivity inhibition assay.

2 molecules from patent US20180066015A1, “INHIBITORS OF GROWTH FACTOR ACTIVATION ENZYMES” (Washington University, published 2018) can be followed below.

Like-named read-outs stand apart in the source and are kept apart here. Starred links: 1 amine or outer side, 2 acyl side, 3 side chain; linkers in the order of their positions; H or OH if unused. Kbt‑6‑CONH = ketobenzothiazole-6-CONH (amide link to Val), O=C(c1ccc2nc([*:1])sc2c1)[*:2] A value given as a limit tells only on which side of the number the result lay.

With “Hepatocyte Growth Factor Activator (HGFA) serine protease domain, N-terminal His-tag, recombinant (from UniProt Q04756) (enzyme)”, the Km of fluorogenic substrate in assay [1] stood at 37 µM. The kcat/KM in [2] is 41300; in assay [3] it was 17700; in assay [4] it was 28100; in assay [5], 3140. Besides, the % activity, P1 position in assay [6] stood at 0.73%; in assay [7] it was 0%; in [8] it was 0%; in [9] it was 0%; in [10], 0%; in assay [11], 0%. Besides, the % activity, P1 position in assay [12] was 0.99%; in [13] it was 0%; in assay [14], 0%; in assay [15], 0%; in assay [16], 0%; in assay [17], 0%. Also, the % activity, P1 position in assay [18] is 100%; in assay [19] it was 0%; in [20] it was 0%; in [21], 0%; in assay [22], 0%; in [23], 0%. For the same molecule, the % activity, P1 position in [24] is 0%.
In general, Ki refers to the dissociation constant of the complex between target and ligand, obtained from inhibition or displacement. Ac-KQLR-{Kbt‑6‑CONH-Val-NH2} [Ac-KQLR(SEQ ID NO: 1)-Kbt-Val-NH2]: the Ki in [25] amounted to 12 nM; in assay [26], 0.29 nM; in [27], 6.98 nM; in assay [28] it was 13 nM; in assay [31], 3210 nM; in assay [32], 0.07 nM. The same molecule had an inhibition constant Ki in assay [33] of 66 nM. The fold change of potency against Ac-KQLR-kbt (7) in assay [28] was determined as 2 fold. The “fold decrease of activity against Ac-KQLR-kbt (7)” value was more than 3 fold in assay [29] and more than 10 fold in assay [30].
